Reference: article PMC4490372, “Architecture of TFIIIC and its role in RNA polymerase III pre-initiation complex assembly” (Nature Communications, 2015)

T1: Bdp1, full-length, recombinant (UniProt P46678 1-594)
T1 construct: Bdp1, subunit of TFIIIB, full-length; also called untagged Bdp1; source: E. coli BL21 Star (DE3) pRARE, purified (Ni-NTA, TEV cleavage, S200 SEC); not shown: His6, N-terminal, cleaved
T1 sequence (looked up): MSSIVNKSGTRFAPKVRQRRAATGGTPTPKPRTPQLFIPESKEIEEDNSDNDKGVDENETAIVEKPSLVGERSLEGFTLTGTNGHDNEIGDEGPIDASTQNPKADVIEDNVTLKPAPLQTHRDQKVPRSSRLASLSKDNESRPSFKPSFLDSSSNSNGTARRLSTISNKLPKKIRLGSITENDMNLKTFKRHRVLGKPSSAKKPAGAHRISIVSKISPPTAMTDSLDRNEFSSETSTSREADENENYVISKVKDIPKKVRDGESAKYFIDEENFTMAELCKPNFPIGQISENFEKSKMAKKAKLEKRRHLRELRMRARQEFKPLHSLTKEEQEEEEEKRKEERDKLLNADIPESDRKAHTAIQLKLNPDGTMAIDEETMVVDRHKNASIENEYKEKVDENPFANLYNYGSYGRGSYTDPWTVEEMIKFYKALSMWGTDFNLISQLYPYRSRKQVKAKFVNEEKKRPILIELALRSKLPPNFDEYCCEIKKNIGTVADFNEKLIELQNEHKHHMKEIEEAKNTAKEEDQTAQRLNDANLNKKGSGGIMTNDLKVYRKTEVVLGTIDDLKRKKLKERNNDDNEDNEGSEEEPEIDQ

T2: τ91 (Tfc6), τB subunit of endogenous S. cerevisiae TFIIIC (S. cerevisiae, UniProt Q06339 1-672)
T2 construct: τ91 (Tfc6), subunit of S. cerevisiae TFIIIC, endogenous subunit in the purified complex; source: endogenous, purified from S. cerevisiae strain SC2342 as part of TFIIIC (TAP tag on τ60)
T2 sequence (looked up): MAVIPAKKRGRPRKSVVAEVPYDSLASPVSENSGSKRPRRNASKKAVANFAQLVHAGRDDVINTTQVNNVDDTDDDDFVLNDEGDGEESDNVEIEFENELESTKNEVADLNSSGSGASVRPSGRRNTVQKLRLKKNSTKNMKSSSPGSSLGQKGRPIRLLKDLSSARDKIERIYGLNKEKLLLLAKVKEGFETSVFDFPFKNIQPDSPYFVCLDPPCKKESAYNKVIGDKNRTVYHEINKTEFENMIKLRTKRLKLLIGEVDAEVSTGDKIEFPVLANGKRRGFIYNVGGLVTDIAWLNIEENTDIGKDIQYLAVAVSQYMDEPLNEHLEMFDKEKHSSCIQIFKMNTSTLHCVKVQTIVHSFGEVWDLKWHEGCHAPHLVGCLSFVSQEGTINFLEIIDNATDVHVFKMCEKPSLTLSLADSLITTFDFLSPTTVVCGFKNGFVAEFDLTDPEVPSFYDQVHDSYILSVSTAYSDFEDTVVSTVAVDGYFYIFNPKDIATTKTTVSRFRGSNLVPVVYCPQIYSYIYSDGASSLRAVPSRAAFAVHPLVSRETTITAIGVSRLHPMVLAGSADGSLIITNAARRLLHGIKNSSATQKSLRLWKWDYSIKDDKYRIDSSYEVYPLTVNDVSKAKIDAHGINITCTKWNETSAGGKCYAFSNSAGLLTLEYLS


Assays:
[1] = biological target: T1, Bdp1, full-length, recombinant; experiment: pull-down; 15 μg GST-tagged τ131 on Glutathione Sepharose 4B; 300 nM τ138 or Bdp1, or 1 μM Brf1–TBP; 50 mM Tris pH 7.5, 150 mM NaCl, 2 mM DTT, 0.1% Tween20; 4 °C, 4 h; settings: both partners purified
[2] = biological target: T2, τ91 (Tfc6), τB subunit of endogenous S. …; experiment: SEC; endogenous TFIIIC purified from yeast by the TAP tag on τ60 (heparin, IgG Sepharose, TEV, MonoQ), then Superose 6 10/300 in 25 mM HEPES pH 7.5, 150 mM NaCl, 1 mM DTT; SDS-PAGE of an elution peak fraction; settings: partners not purified

Row | binding result [1] | binding result [2] | Binder
1 | binds |  | GST-tagged τ131 (123–566), wild type (domain or fragment, S. cerevisiae, UniProt P33339 123-566, looked up, also called GST-τ131; source: E. coli BL21 (DE3) Gold, purified (GST column, S200 SEC)) VLDPEVAQLLSQANEAFVRNDLQVAERLFNEVIKKDARNFAAYETLGDIYQLQGRLNDCCNSWFLAAHLNASDWEFWKIVAILSADLDHVRQAIYCFSRVISLNPMEWESIYRRSMLYKKTGQLARALDGFQRLYMYNPYDANILRELAILYVDYDRIEDSIELYMKVFNANVERREAILAALENALDSSDEESAAEGEDADEKEPLEQDEDRQMFPDINWKKIDAKYKCIPFDWSSLNILAELFLKLAVSEVDGIKTIKKCARWIQRRESQTFWDHVPDDSEFDNRRFKNSTFDSLLAAEKEKSYNIPIDIRVRLGLLRLNTDNLVEALNHFQCLYDETFSDVADLYFEAATALTRAEKYKEAIDFFTPLLSLEEWRTTDVFKPLARCYKEIESYETAKEFYELAIKSEPDDLDIRVSLAEVYYRLNDPETFKHMLVDVVEMR
2 |  | binds | τ60 (Tfc8), τB subunit of endogenous S. cerevisiae TFIIIC, fused with a C-terminal TAP-tag (natural protein, UniProt Q12308 1-588, looked up, τ60 (Tfc8), subunit of S. cerevisiae TFIIIC, endogenous TFC8 fused with a C-terminal TAP-tag; The complex was captured on IgG Sepharose by the TAP tag and released by TEV protease before MonoQ, Superose 6 and cross-linking; not shown: TAP, C-terminal, kept) MKLLKDLLVDRKEFEDWKNNLTWARDGTLYLTTFPDISIGQPKYAKDINCNSKNLFHVKEFPLEFENKLDFELAQQNGLLNSQPVCYPRVCKPSPIDDWMAVLSNNGNVSVFKDNKMLTNLDSKGNLSSRTYHCFEWNPIESSIVVGNEDGELQFFSIRKNSENTPEFYFESSIRLSDAGSKDWVTHIVWYEDVLVAALSNNSVFSMTVSASSHQPVSRMIQNASRRKITDLKIVDYKVVLTCPGYVHKIDLKNYSISSLKTGSLENFHIIPLNHEKESTILLMSNKTSYKVLLEDELHVTADNIIAPYLEKKFKKWSTIWNEFNNYETTLVIHGISLSPDGYSIAIVYDMERVAFKYKIASEQSFNIMFAPLYHTWTISERAVGLAWYQTYQIYNQSLPKLPENFSMNKKLLNGNYPISLDFQSYLNALMKSEEMRIIMFLNMTIDKPSILSFLEALYEYAINKKSELTNSFDLACVLSIAAILKREAPIYNGTLLMKNSFLEETFNLESFTADPETVTSTTNNTWKRCGVTLLPILTTHVKICPVSKQRVIDIKRDDLNDYGWFTRGLLERFNEISVYCGTTLEVM
3 | binds |  | GST-tagged τ131 (1–580), wild type (domain or fragment, S. cerevisiae, UniProt P33339 1-580, looked up, τ131 (Tfc4) of S. cerevisiae TFIIIC, residues 1-580 (extended N terminus and TPR array); also called GST-τ131 (1–580); longer τ131 protein; source: E. coli BL21 (DE3) Gold, purified (GST column, S200 SEC)) MAAGKLKKEQQNQSAERESADTGKVNDEDEEHLYGNIDDYKHLIQDEEYDDEDVPHDLQLSEDEYNSERDSSLLAEFSDYGEISEDDEEDFMNAIREASNFKVKKKKKNDKGKSYGRQRKERVLDPEVAQLLSQANEAFVRNDLQVAERLFNEVIKKDARNFAAYETLGDIYQLQGRLNDCCNSWFLAAHLNASDWEFWKIVAILSADLDHVRQAIYCFSRVISLNPMEWESIYRRSMLYKKTGQLARALDGFQRLYMYNPYDANILRELAILYVDYDRIEDSIELYMKVFNANVERREAILAALENALDSSDEESAAEGEDADEKEPLEQDEDRQMFPDINWKKIDAKYKCIPFDWSSLNILAELFLKLAVSEVDGIKTIKKCARWIQRRESQTFWDHVPDDSEFDNRRFKNSTFDSLLAAEKEKSYNIPIDIRVRLGLLRLNTDNLVEALNHFQCLYDETFSDVADLYFEAATALTRAEKYKEAIDFFTPLLSLEEWRTTDVFKPLARCYKEIESYETAKEFYELAIKSEPDDLDIRVSLAEVYYRLNDPETFKHMLVDVVEMRKHQVDETLHRISNE
